# Laboratory results taken from the RNAGym collection of RNA variant scans (doi:10.1073/pnas.2313332121).
# B1: TPR t1 (parent)
# chain: GACCAAUCUGCCCUCAGAGCUCGAGAACAUCUUCGGAUGCAGAGGAGGCAGGCUUCGGUGGCGCGAUAGCGCCAACGUCCUCAACCUCCAAUGCAUCCCACCACAUGAUGAUGCCUGAAGAGCCUUGGUUUUUUG
# Variants of: B1
# Experiment: polymerase ribozyme fitness, log enrichment relative to wild type (log ratio); higher = more active; in vitro selection for triplet polymerase activity
# Summary of the method: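 Mutant libraries for each subunit of a heterodimeric triplet polymerase ribozyme were made by PCR and then transcribed. Each library underwent one round of in vitro selection in triplicate: annealing with a biotinylated primer, the partner subunit and triplets, frozen incubation at −7 °C, gel excision of extended constructs, streptavidin-bead capture and RT-PCR. Input and output libraries were Illumina-sequenced, and only genotypes with ≥10 input reads and ≥1 read per output were kept. Fitness is the logarithm, base 2, of genotype enrichment over wild-type enrichment, computed from inverse-variance-weighted replicate averages.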
row,Variant,polymerase ribozyme fitness (log ratio)
1,C56G G69U U81A C88A A100U,-2.69
2,G45U C73U U87A A105U G135C,-2.69
3,A43U C104A A118U,-4.29
4,C40U C101U,0.317
5,C12U G71C C82G,-1.53
6,C73G G127A,-1.82
7,G19U G69A,-3.8
8,G61U U130G,-0.614
9,U30C G63A,-2.6
10,U14A C53G C70U C72G,-4.88
11,A46G A50G,0.425
12,C89G G93U G120U,-3.31
13,A6U C15G A43U C115U U116G G120A G122A,-3.93
14,A46G A90G C101U U106A,-0.372
15,A5C C123G,1.35
16,A41C G63C A105G,-5.05
17,A26G A50G C56G A74G C82G,-4.41
18,C62G A90U U112A C115G C124U U133C,-5.24
19,C40A A50G G71U C85U,-2.76
20,C3A C49G A75U U125A,-2.69
21,C62A C79A,-3.89

row,Variant,polymerase ribozyme fitness (log ratio)
1,C3U U14G A26U G60U C123A,-4.1
2,C8G G35C,-4.29
3,A84G U129G,-1.32
4,C11G C64U C114G C115A C123G C124A,-4.26
5,G39C U109A G110U,-3.37
6,C53A G71C C86A C124A,-2.54
7,A29G G42A G63A,-4.31
8,A2U C64U A83G A111C,-4.94
9,C15U A50U G63C C89U,-3.78
10,C53G U81A U131G,-0.825
11,G39U G61U U106A,-0.274
12,G48C U81A G127C,-3.51
13,U9A A18U A41G U92A,-2.99
14,G17A U55A G77U C115U U125A,-0.205
15,C12G A41G C72U C102U,-2.31
16,A29G C34A C40A U106G G113U U126C,-7.15
17,G61C U78C U133A,-3.51
18,C13U A83C U112C,1.79
19,C72G C101U,-0.7
20,A37C C56G U125A,-1.58
21,G10A C70A,-1.32

row,Variant,polymerase ribozyme fitness (log ratio)
1,U92A A119G G127C,-2.05
2,C31A C40U A50U G60A C101A U106A C115U A119G,-6.82
3,G17U A121G,0.688
4,C12A C97A U131A,-4.52
5,A90C C115A,-0.409
6,C56A C73A C94U G113A,-2.48
7,C15G A16U C72U U109A C115U,-6.16
8,C15G A83U C115G C123A,-5.38
9,A6U U38A G63C C79U A84G C89U,-3.61
10,C8G G93U,-0.15
11,C11G A41U G47C U59A A66U,-6.01
12,C56G C64U,-0.732
13,G17U A27U C40A C64A C85A G117C G127A U129A,-6.49
14,C11G G17A,-3.46
15,C15A U109G G113A U131A,-5.16
16,A103G G117A,-4.42
17,C53A C56G C70U U132A,-0.0503
18,A41U C115U G127A,-3.9
19,C62A C82A A121G,1.58
20,C20G G117C,-5.4
21,C12A C88G,-1.56

row,Variant,polymerase ribozyme fitness (log ratio)
1,U92A A111G,-3.82
2,C4U U14A C73U,-4.13
3,C40U C56G C72A C76A,-2.93
4,A50U C56A C82G U87G G117A U132A,-4.26
5,G77U,-0.194
6,C20U C22A G23U G44U G63A C88G A103C U109A,-6.38
7,C13U U55A G61C A84U C85G A95G U125G G128U,-3.92
8,U9C A83C,0.121
9,G61A U116G A121U,0.807
10,C28U A119G,-1.04
11,U59G C73A C88A,-2.15
12,C8A A41U C49G G61A U81C A100U,-8.29
13,C40G G61C G69U,-2.88
14,A103G G110U,-3.83
15,A103G G110A,-5.82
16,G44A G61U,-0.0446
17,U14G C15A,-3.45
18,C13U C82U A83G A118U,-1.83
19,C40A A41C C49A C70U U92A C102G U109A,-6.25
20,G57C C115A,0.0474
21,G42U U59A C62G C88G A90U C98U,-7.74
